Measurements: US12427188B2, “Pyocyanine demethylases and related phenazine degrading agents compositions, methods and systems for interfering with viability of bacteria” (priority 2020, dated 2025)
“Also recorded” adds a separate entry of the source.

Key:
[1] = Continuous spectrophotometric PYO demethylation assay (specific activity and kinetics of PodA); format: biochemical; conditions: for Activity over range of pH: PodA10 3 μM
Experimental: Specific activity and kinetics of PodA. To determine specific activity and kinetic parameters of PodA for PYO, a continuous spectrophotometric assay monitoring the absorbance of PYO (690 nm) was utilized. Briefly, assays were performed at 25° C. in 100 μL reaction volumes in 96-well plates and reactions were monitored at 690 nm over 10 min. Reaction mixtures contained Phosphate buffer (50 mM, pH 6.0), ethylene glycol (1%, v/v), protein (3 μM) and substrate (for specific activity, 100 μM, for kinetics, varying). Data were acquired using the SpectraMax® M3 Microplate Reader (Molecular Devices) using the Soft Max Pro software every 10 s over 10 min. Path lengths for each well were calculated using Soft Max Pro endpoint readings and slopes were corrected for path lengths of 1 cm.
Specific activity was calculated from the slope of the linear range of (ΔOD690 min^−1) using Beer's Law (A=εcl) with a path length of 1 cm and the molar extinction coefficient of PYO (4,130 M^−1 cm^−1). Equation was solved for c, giving specific activity in nmol min^−1 mg^−1 of PodA. For kinetic parameters, graphs of initial velocity (μM s^−1) versus substrate concentration (μM) were plotted using Prism v8 (GraphPad). The Michaelis-Menten kinetics model was used to determine Km and Vmax. The turnover number (kcat) was determined using the following equation: Vmax=kcat[E], where [E] was the concentration of PodA added. All spectrophotometric assays mentioned above were completed thrice, each in technical triplicate with a representative data set shown. Error bars represent standard deviation as calculated by Prism v8 (GraphPad). Standard deviation for kcat and Kcat KM^−1 was calculated using standard formulas for propagation of error.

[2] = Protein yield of PodA variants purified from inclusion bodies of overexpression culture; conditions: purified from inclusion bodies, per L of E. coli overexpression culture
Experimental: Protein overproduction and purification of soluble and inclusion body fractions. Plasmids coding for proteins of interest were transformed into E. coli BL21 […]. […]. Cultures were grown at 37° C. with shaking to an optical density of 0.4 (OD600 nm) and plasmid expression was induced with IPTG (50 μM) and shaken overnight at 16° C. Cells were harvested by centrifugation at 5,000×g for 10 min in a Beckman Coulter Avanti J-20 XOI refrigerated centrifuge using a JLA-8.1000 rotor at 4° C. Cell pellets were stored at −80° C. until used.
For purification of PodA from inclusion bodies, the pellets remaining following lysis and centrifugation at 40,000×g were resuspended in 20 mL of detergent buffer [50 mM HEPES (pH 7.5) and 1% Triton-X (v/v)] using a Bio-gen PRO200 cell homogenizer (PRO Scientific). Sample was spun for 15 min at 40,000×g at 4° C. in a Beckman Coulter Avanti centrifuge with a JA-25.50 rotor. Supernatant was discarded and the remaining cell pellet was resuspended in 5 mL of buffer [50 mM HEPES (pH 7.5), 500 mM NaCl] using a cell homogenizer, supplemented with lysozyme (200 μg mL^−1), and incubated for 10 min. Volume was increased to 20 mL with HEPES (50 mM, pH 7) and sample was spun for 40,000×g at 4° C. for 15 min. Supernatant was discarded and pellet was homogenized in 10 mL of denaturing buffer 50 mM HEPES (pH 7.5), 500 mM NaCl, and 8M urea) and incubating rocking overnight. The sample was spun at for 40,000×g at 25° C. for 30 min and supernatant was incubated with 1 mL HisPur Ni-NTA resin (Thermo Fisher Scientific) on a rocking platform for 10 min. Beads were allowed to settle without shaking, supernatant was discarded, and resin was pipetted into glass gravity columns. Resin was washed with 15 mL of denaturing buffer, followed by an elution with denaturing buffer supplemented with imidazole (500 mM). Fractions were analyzed by SDS-PAGE and those containing protein were combined into SnakeSkin 3.5 K MWCO dialysis tubing (Thermo Fisher Scientific). Urea was slowly dialyzed out in HEPES (50 mM, pH 7.5) and NaCl (500 mM) by lowing urea concentrations by 1 M increments. Each step was dialyzed at RT for 30 min. Protein was dialyzed in HEPES (50 mM, pH 7.5), NaCl (500 mM), and imidazole (20 mM) overnight at 4° C. The following day, protein was cleaved for 3 h at 25° C. with TEV protease (1:50 mg:mg ratio of TEV to PodA). The sample was applied to a HisPur gravity column and cleaved protein in the flow thru was confirmed by SDS-PAGE. Cleaved PodA protein was then dialyzed for storage for 3 h at 4° C. in HEPES (50 mM pH 7.5), NaCl (250 mM) and finally in HEPES (50 mM, pH 7.5), NaCl (100 mM), and glycerol (20%, v/v). Protein concentration was established on a NanoDrop™ using the extinction coefficient and MW of each protein. Protein was drop frozen in LN2 and stored at −80° C. until use.

Pseudomonas aeruginosa = experiment: Crystal violet biofilm assay; format: cell-based; conditions: 24 h incubation, protein added from the beginning
Experimental: Crystal violet assay. Pseudomonas aeruginosa grown overnight in LB were inoculated (1.5%, v/v) and grown for 24 h at 37° C. in 96-well round bottom plates in minimal medium (100 μL) with arginine (40 mM) as the sole carbon source. PodA was added with cells simultaneously and was present during growth and biofilm development. Planktonic cells were removed and attached cells were quantified with crystal violet staining (125 μL. 0.1% w/v), followed by washes with water and de-staining with an acetic acid (30%, v/v) mixture in water. Crystal violet was measured using a SpectraMax® M3 Microplate Reader (Molecular Devices) at an absorbance of 550 nm. Details of procedure were published previously (28)[43].

B1: PodA10: Designed PodA41-162 variant: A53N, I73T, A87V, M99V, A129T; SEQ ID NO: 4 (protein)
chain: MVTMTLDVKNDQVNKHDFGKPGMDVGDMDIFSDTLSVDGKQVGYDGGVCFFTNVTPDNPVTYCELTIHLDAGEIFARSLTPATLAPFTMTITGGTGEYANSKGELTVSGVATPDEKYELKLTK
catalytic efficiency in growth medium compared to buffer ([1]; LB and SCFM, PodA 3 μM): No change
catalytic efficiency compared with PodA^WT ([1]; Michaelis-Menten kinetics, 3 μM protein): slight increase in efficiency
PYO demethylation activity relative to wild type ([1]; PYO 50 μM, PodA variants 3 μM): wild-type activity was maintained
Activity over range of pH ([1]; PYO 100 μM): maintained activity over a large range of pH, with no observable preference between a pH of 5-9
Activity over range of pH ([1]; PYO 100 μM, listed as PodA1041-162): maintained activity over a large range of pH, with no observable preference between a pH of 5.5 and 9
Effect of salts (NaCl and KCl) on activity ([1]; cystic fibrosis sputum range, 66 mM Na+, 15 mM K+): not altered
Effect of slight increase in viscosity (ethylene glycol or glycerol 1% v/v) on activity ([1]; pH 6, PodA 3 μM, PYO 100 μM): slight ad-vantage; also recorded: slight advantage
Yield [2]: 5.92 mg/L^−1
biofilm attachment (crystal violet) (Pseudomonas aeruginosa): biofilm attachment defect that was comparable to that achieved by WT PodA41-162
